Experimental data as given in the nanobody polyreactivity screen of Harvey et al. (2022).

Assay: yeast display, Sf9 membrane polyspecificity reagent, FACS + sequencing; frameworks hold sequencing errors
Method in brief: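 After 36–48 hours of galactose induction, yeast (Saccharomyces cerevisiae BJ5465) displaying a synthetic nanobody library were stained at 4 °C for 1 hour with 10% biotinylated, detergent-solubilized Sf9 membrane reagent. Streptavidin microbeads enriched the stained cells before FACS sorting into low and high (top ~1%) gates on anti-HA and streptavidin fluorescence. Each clone's polyreactivity label reflects its gate of origin.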

Sequence	polyreactivity (PSR sort gate)
QVQLVESGGGLVQAGGSLRLSCAASGFIFNHYAMGWYRQAPGKEREFVAAISWSGGSTYYADSVKGRFTISRDNAKNTVYLQMNSLKPEDTAVYYCAASYNGLWHGDYDYWGQGTQVTVSS	low polyreactivity
QVQLVESGGGLVQAGGSLRLSCAASGFIFNKYAMGWYRPAPGKERELVARITSSGSRTYYADSVKGRFTISRDKAKNTVYLQMISLKPEDTAVYYCNTYYHWLTMDYWGQGTQVTVSS	high polyreactivity
QVQLVESGGGLVQAGGSLRLSCAASGFIFNVNAMGWYRQAPGKEREFVAVSTYADSVKGRFTISRDNAKNTVYLQMNSLKPEDTAVYYCAATFVQPVYDYDYWGQGTQVTVSS	low polyreactivity
QVQLVESGGGLVQAGGSLRLSCAASGFIFNWYAMGWYRQAPGKERELVAVITSSGGSTYYADSVKGRFTISRDNAKNTVYLQMNSLKPDDTAVYYCNKKPGPAPNKYRITARYYYWGQGTQVTVSS	high polyreactivity
QVQLVESGGGLVQAGGSLRLSCAASGFIFNYYTMGWYRQAPGKEREFVAAIRRSGTRTYYADSVKGRFTISRDNAKNTVYLQMNSLKPEDTAVYYCAARGTSPGHGTYTRTRGQRYYYWGQGTQVTVSS	high polyreactivity
QVQLVESGGGLVQAGGSLRLSCAASGFIFPDYAMGWYRQAPGKERELVAAISFRDGSTYYADSVKGRFTISRDNAKNTVYFQINSLKPEDTAVYYCNAGPQYDVHEYYYWGQGSQVTVSS	low polyreactivity
QVQLVESGGGLVQAGGSLRLSCAASGFIFPFYAMGWYRQAPGKERELVAVIRTSSDRTYYADSVKGRFTISRDNAKNTVYLQMNSLKPEDTAVYYCAAETYRLFDYLGQGTQVTVSS	low polyreactivity
QVQLVESGGGLVQAGGSLRLSCAASGFIFPGYAMGSYRQAPGKERELVAAISRRGGRTYYADSVKGRFTISRDNAKNTVYLQMNSLKPEDTAVYYCAAVVQSTQYICDYWGQGTQVTVSS	high polyreactivity
QVQLVESGGGLVQAGGSLRLSCAASGFIFPGYTRGWYRQAPGKEWELVAAISRGSSTYYADSVKGRFTISRDNAKNTVYLQMNSLKPEDTSVYYCNTRVYAITLYDYWGQGTQVTVSS	low polyreactivity
QVQLVESGGGLVQAGGSLRLSCAASGFIFPHYAMGGYRQAPGKERELIAAISKSGDSTYYADSVKGRFTISRDNAKNTVYLQMNSLKPEDTAVYYCARRGRSLRWKYDYWGQGTQVTVSS	low polyreactivity
QVQLVESGGGLVQAGGSLRLSCAASGFIFPLYAMGWYRQAPGKERELVAAITWRGDTTSYADSVKGSFTISRDNAKNTVYLQMNSLKPEDTAVYYCAAEFYDWWYYGGGEYWGQGTQVTVSS	high polyreactivity
QVQLVESGGGLVQAGGSLRLSCAASGFIFPRYAMGWYRPAPGTERELVAAISRSGGITRYADSVKGRFTISRDNAKNTVYLQINSLKPEDTAVYYCAAYIQGWVTAEWVRDDYWGQGTQVTVSS	high polyreactivity
QVQLVESGGGLVQAGGSLRLSCAASGFIFPSNAMGWYRQAPGKERELVAAISSRGTRTYYADSVKGRFTISRDNAKNTVYLQMNSLKPEDTAVYYCAKYGYWGQGTQVTVSS	high polyreactivity
QVQLVESGGGLVQAGGSLRLSCAASGFIFPSNSMGWYRQAPGKEREFVAAISSRGGSTTYADSVKGRFTISRDYAKNTVYLQMNSLKPEDTAVYYCARDWYYYPQYRQRYYYWGQGTQVTVSS	high polyreactivity
QVQLVESGGGLVQAGGSLRLSCAASGFIFPSYAMGWYRQAPGKERELVAAISWTGGTYYADSEKGRFTISRDNAKNTVYFQMNSRKPEDTAVYYCAVRYKRKGSGYRTNAYDYWGQGTQVTVSS	high polyreactivity
QVQLVESGGGLVQAGGSLRLSCAASGFIFPTNTMGWYRQAPGKEREFVARITRSGTNTYYADSVKGRFTISRDNAKNTVYLQMNSLKPEDTAVYYCARRGTSSYRRYWLDSASNMDYWGQGTQVTVSS	high polyreactivity
QVQLVESGGGLVQAGGSLRLSCAASGFIFPVNAMGWYRQAPGKERELVAAITSSGGDTYYADSVKGRFTISRDNAKNTVYLQMNSLKPEDTAVYYCAAEYTQEQEDYDYWGQGTQVTVSS	low polyreactivity
QVQLVESGGGLVQAGGSLRLSCAASGFIFPVNGMGWYRQAPGKERELVAGITRTGTSTYYADSVKGRFTISRDNAKYTVYLQMNSLKPEDTAVYYCAADLYTGRTKYWEFESWGQGTQVTVSS	low polyreactivity
QVQLVESGGGLVQAGGSLRLSCAASGFIFPYYTMGWYGQARGKERELVAAISYSGGSTYYADSVKGRFTISRDKAKNTVYLQMNSLKPEDTAVYYCNADPPLIVYKVWFLLDYWGQGTQVTVTS	high polyreactivity
QVQLVESGGGLVQAGGSLRLSCAASGFIFQDNAMGWYRQAPGKERELVAAIRSTGSTNYADSVKGRFTISRDNAKNTVYLQMNSLKPEDTAVYYCNAGKYQSDTPSLVPTEYPAFYYWGQGTQVTVSS	low polyreactivity
QVQLVESGGGLVQAGGSLRLSCAASGFIFQDYAMGWYRQAPGKERELVAAITQSSGSTYYADSVKGRFTISRDNAKNTVYLQMNSLKPEDTAVYYCNTAYDFSRQASYDYWGQVTQVTVSS	low polyreactivity
QVQLVESGGGLVQAGGSLRLSCAASGFIFQKYAMGWYRQAPGKERELVAAISRSGGSTYYADSVKGRFTISRDNAKNTVYLQMNSLKPEDTAVYYCNAVYSTSRDYWGQGTQVTVSS	high polyreactivity

Sequence	polyreactivity (PSR sort gate)
QVQLVESGGGLVQAGGSLRLSCAASGFIFQPYAMGWYRQAPGKERELVAAINFSGGSTYYADSVKGRFTISRDNAKNTVYLQMNSLKPEDTAVYYCARAGRYAAYSPFYYWGQGTQVTVSS	high polyreactivity
QVQLVESGGGLVQAGGSLRLSCAASGFIFQRYAMGWYRQAPGKERELVAAISWSGGITYYADSVKGRFTISRDNAKNTVYLQMNSLKPEDTAVYYCAAGLAVGDYYWGQGTQVTVSS	high polyreactivity
QVQLVESGGGLVQAGGSLRLSCAASGFIFQSYAMGWYRQAPGKERELVAAISSRGGSTYYADSVKGRFTISRDIAKNTVYLQMNSLKPEDTAVYYCAADLYGNEYDYWGQGTQVTVSS	low polyreactivity
QVQLVESGGGLVQAGGSLRLSCAASGFIFQSYAMGWYRQAPGKERQLVAAISYTGGSTYYADSVKGRFTISRDNAKNTVYLQMNSLKPEDTAVYYCARSYYTNGNALKRDYWGQGTQVTVSS	high polyreactivity
QVQLVESGGGLVQAGGSLRLSCAASGFIFQTNVMGGYRQAPGKERELVAAISSGYSTYYADSVKGRFTISRDNAKNTVYLQMNSLKPEDTAVYNCAADVLGTTTTVGGFNYWGQGTQVTVSS	low polyreactivity
QVQLVESGGGLVQAGGSLRLSCAASGFIFQYYAMGWYRQAPGKERELVAAISFSGGSTYYADSVKGRFTISRANAKNTVYLPMNSLKPEDTAVYYCAAEVYSGGDYSGHDYYWGQGTQVTVSS	low polyreactivity
QVQLVESGGGLVQAGGSLRLSCAASGFIFQYYSMGWYRQAPGKERELVATITSRGGSTYYADSVKGRFTISRDNAKNTVYLQMNSLKPEDTAFYYCNARSSSPRKYGYWGQGTQVTVSS	high polyreactivity
QVQLVESGGGLVQAGGSLRLSCAASGFIFRAYAMGWYRQAPGKERELVAAISYSGGSTYYADSVKGRFTISRDNAKNTVYLQMNSLKPEDTAVYYCAALTIRVGSLGRDYWGQGTQVTVSS	low polyreactivity
QVQLVESGGGLVQAGGSLRLSCAASGFIFRDNAMGWYRQAPGKERELVAAISERGGRTYYADSVKGRFTISRDNAKNTVYLQMNSLKPEDTAVYYCAAEDIANFYYWGQGTQVTVSS	high polyreactivity
QVQLVESGGGLVQAGGSLRLSCAASGFIFRDYEMGWYRQAPGKERELVAAISWRGGTYYADSVKGRFTISRDNAKNTVYLQMNSLKPEDTAGYYCNATRYRLRPSGVRYKYNYWGQGTQVTVSS	low polyreactivity
QVQLVESGGGLVQAGGSLRLSCAASGFIFRFNAMGWYRQAPGKERELVAAITYRGITYYADSVKGRFTISRDNAKNTVYLQMNSLKPEDTAVYYCAKRTSARGLYGVYFGRYEYWGQGTQVTVSS	high polyreactivity
QVQLVESGGGLVQAGGSLRLSCAASGFIFRFYAMGWYRQAPGKEREVVAVISRSGGSTYYADSVKGRFTISRDHAKNTVYLQMNSLKPEDTAVYYCAATFYWDSVRRGDYDYWGQGTQVTGSS	high polyreactivity
QVQLVESGGGLVQAGGSLRLSCAASGFIFRGNARGWYRQAPGKERELVAAISVRGGRTYYADSVKGRFTISRDNAKNTVYLQMNSLKPEDTAVYDCAADLYNRGRGSSQSYRTGYDYWGQGTQVTVSS	high polyreactivity
QVQLVESGGGLVQAGGSLRLSCAASGFIFRGYAMGWYRQAPGKERELVAVISRSGTSTYYADSVKGRFTISRDNAKNTVYLQMNSLKPEDTAVYYCAKEVWPRYIRQAYLSGYESWGQGTQVTVSS	high polyreactivity
QVQLVESGGGLVQAGGSLRLSCAASGFIFRHNAMGWYRPAPGTEREFVAAISISGGSTYYADSVKGRFTISRDNAKNTVYLQMNSLKPEDTAVYYCNARSLGNTYLLYDYWGQGTQVTVSS	low polyreactivity
QVQLVESGGGLVQAGGSLRLSCAASGFIFRKYAMGWYRQAPGKERELVAAITSSGGSTYYADSVKGRFTISRDNAKNTVYLQMNSLKPEDTAVYYCAARLKQSGHDYWGQGTQVTVSS	high polyreactivity
QVQLVESGGGLVQAGGSLRLSCAASGFIFRKYGMGWYRQAPGKERELVAAIRFTGGSTRYADSVKGRFTISRDNAKNTVYLQMNSLKPEDTAVYYCNADRVYVRGRFTYDYWGQGTQVTVSS	low polyreactivity
QVQLVESGGGLVQAGGSLRLSCAASGFIFRNYAMGWNTQAPGKERELVAAISRSVGRTYYADSVKGRFTISRDNAKNTVYLQMNSLKPEDPAVYYCAVHIYGIGFYFTYLYVNGYDYWGQGTQVTVSS	high polyreactivity
QVQLVESGGGLVQAGGSLRLSCAASGFIFRNYAMGWYRQAPGKERELVAAISRGGRTNYADSVKGLFTISRDNAKNTVYLQMNSLKPEDTAVYYCNAVTVGLYDYWGQVTQVTVSS	high polyreactivity
QVQLVESGGGLVQAGGSLRLSCAASGFIFRQYAMGWYRQAPGKERELVAAISRSGGSTYYADSVKGRFTISRDNAKNTVYLQMNSLKPEDTAVYYCAVRYNQWYLNFGRYDYWGQGTQVTVSS	high polyreactivity
QVQLVESGGGLVQAGGSLRLSCAASGFIFRRNAMGWYRPAPGKERELVAAITKSGGSTYYADSVKGRFTISRDNAKNTVYLQMNSLKPEDTAVYYCAAPYSAKELYYRMDYWGQGTQVTVSS	high polyreactivity
